{"source": "paper PMC6201748", "origin": "cited, not measured here", "target": "ZipA (Escherichia coli) (UniProt P77173)", "assay": "SPR", "data": [{"substance": "FtsZ (from UniProt P0A9A6)", "values": [{"measurement": "Kd", "result": 7, "unit": "µM"}]}]}
